Results published in the supplement of paper PMC11908140.

B1: library; numbered along this chain (parent)
chain: MRKPRAAVGSGHRKQAASQEGRQKHAKNNSQAKPSACDGLARQPEEVVLQASVSSYHLFRDVAEVTAFRGSLLSWYDQEKRDLPWRRRAEDEMDLDRRAYAVWVSEVMLQQTQVATVINYYTGWMQKWPTLQDLASASLEEVNQLWAGLGYYSRGRRLQEGARKVVEELGGHMPRTAETLQQLLPGVGRYTAGAIASIAFGQATGVVDGNVARVLCRVRAIGADPSSTLVSQQLWGLAQQLVDPARPGDFNQAAMELGATVCTPQRPLCSQCPVESLCRARQRVEQEQLLASGSLSGSPDVEECAPNTGQCHLCLPPSEPWDQTLGVVNFPRKASRKPPREESSATCVLEQPGALGAQILLVQRPNSGLLAGLWEFPSVTWEPSEQLQRKALLQELQRWAGPLPATHLRHLGEVVHTFSHIKLTYQVYGLALEGQTPVTTVPPGARWLTQEEFHTAAVSTAMKKVFRVYQGQQPGTCMGSKRSQVSSPCSRKKPRMGQQVLDNFFRSHISTDAHSLNSAAQ

Variants of: B1
Assay: 8OG:A repair function score (normalized; synonymous = 0, nonsense = -1) (normalized log-likelihood score); higher = more repair activity (WT-like)
Settings: with 8OG:A DNA repair reporter (GFP) in HEK-293 MUTYH KO cells
Description: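 Saturation mutagenesis (NNN codon scan) of the MUTYH cDNA (521-aa nuclear isoform NM_001048174.1 / NP_001041639), stably expressed under doxycycline induction in HEK-293 MUTYH knockout cells. Cells were co-transfected with an 8OG:A-bearing GFP repair reporter plus mCherry and sorted 72 h later into GFP+ and GFP− bins, three replicates per tile. The Rosace log2 enrichment (GFP+ vs GFP−) was converted per tile to a normalized function score with synonymous variants centered at 0 and nonsense variants (codons 1-471) at -1; low-abundance variants were removed.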

Row | Variant | 8OG:A repair function score
1 | A115H | 0.0405
2 | G186T | -0.373
3 | G39Y | -0.0346
4 | G39P | 0.0274
5 | G39S | 0.0658
6 | R219A | -0.563
7 | R281I | -0.176
8 | R281K | -0.09
9 | L139Q | -0.0666
10 | L139G | -0.00666
11 | L49D | 0.0266
12 | A431L | 0.0682
13 | G150S | -1.26
14 | G475C | 0.00154
15 | G353L | -0.135
16 | G353D | 0.0347
17 | G401D | 0.0297
18 | G356F | -0.253
19 | G356Q | 0.00571
20 | V441N | -0.259
21 | G326R | -0.176
22 | G326Y | -0.435
23 | A212H | -0.341
24 | A212D | -0.814

Row | Variant | 8OG:A repair function score
25 | V230N | -0.687
26 | E395L | -0.23
27 | K492M | 0.015
28 | K492R | -0.0207
29 | V284P | -0.32
30 | Q397C | -0.496
31 | Q397W | 0.284
32 | N143P | -0.4
33 | E64F | -1.97
34 | L40H | 0.00147
35 | L40F | 0.134
36 | D512N | -0.0198
37 | Q286F | -0.00865
38 | P264A | -0.0364
39 | P264W | -0.113
40 | A67E | -0.0141
41 | A67M | -0.118
42 | P316F | -0.198
43 | S518L | -0.0274
44 | C272W | -1.09
45 | I118L | -0.0284
46 | I118R | 0.0138
47 | I118P | -0.112
48 | Q233P | -0.428

Row | Variant | 8OG:A repair function score
49 | Q233I | 0.198
50 | Q233N | -0.032
51 | G205F | -0.891
52 | K422G | -0.491
53 | K422W | -0.317
54 | L423P | -0.683
55 | L423G | 0.0807
56 | L423S | 0.137
57 | L241G | -0.827
58 | E92H | -0.0814
59 | E92R | -0.0994
60 | E92C | -0.0208
61 | E92L | -0.011
62 | Q521E | 0.00527
63 | Q521M | 0.0277
64 | F453W | -0.274
65 | F453K | -0.87
66 | A345I | 0.0369
67 | T130C | -0.578
68 | P404V | -0.000894
69 | V214I | -0.231
70 | W85S | -1.22
71 | W85A | -1.08
72 | M496L | -0.0124

Row | Variant | 8OG:A repair function score
73 | D502K | -0.00432
74 | S153H | -0.0258
75 | E341P | -0.0298
76 | E341W | 0.0472
77 | C489S | 0.0134
78 | C489V | -0.0255
79 | G222S | -0.439
80 | G222L | -0.623
81 | V362R | -0.236
82 | S294E | 0.00208
83 | V62I | -0.00659
84 | W124C | -0.794
85 | S136N | -0.0676
86 | P299H | 0.0118
87 | P44D | -0.119
88 | G236R | 0.107
89 | P442R | -0.0654
90 | Q78Y | -0.12
91 | L432A | -0.541
92 | S74V | -0.0223
93 | E287R | -0.0601
94 | G171T | -0.321
95 | G171V | -0.443
96 | G171K | -0.84

Row | Variant | 8OG:A repair function score
97 | A280Y | -0.51
98 | R246L | -0.719
99 | V48Q | 0.0497
100 | V48D | 0.0961
101 | V47D | -0.0274
102 | V47A | 0.101
103 | V47T | -0.0192
104 | A192S | -0.166
105 | A192Y | -1.07
106 | K463A | -0.157
107 | D208N | -0.984
108 | N307R | -0.00117
109 | N307P | -0.0382
110 | S298W | -0.00249
111 | L268S | -0.00947
112 | R495Y | -0.0924
113 | I509G | -0.00592
114 | W374S | -0.607
115 | E168L | -0.0373
116 | E168A | -0.135
117 | G372N | -0.294
118 | G372K | -0.479
119 | S54Q | 0.00389
120 | S54L | 0.00619

Row | Variant | 8OG:A repair function score
121 | S54H | 0.0058
122 | S296H | -0.0357
123 | S296I | -0.0485
124 | V438H | -0.17
125 | Q202N | -0.274
126 | A291C | -0.0481
127 | H172L | -0.0966
128 | R156S | -0.193
129 | T260P | -1.17
130 | K333M | -0.0664
131 | K333P | 0.038
132 | K333D | -0.903
133 | L237I | 0.105
134 | L237Y | -0.0407
135 | G70R | 0.00416
136 | A305L | -0.00389
137 | H410L | -0.3
138 | H410A | -0.29
139 | M478E | 0.0141
140 | T380R | 0.162
141 | T380G | 0.0924
142 | V274K | -1.03
143 | V166N | -0.124
144 | V207S | -0.875

Row | Variant | 8OG:A repair function score
145 | T455S | 0.128
146 | R446V | -0.116
147 | A519G | -0.00167
148 | A519R | 0.013
149 | A519P | 0.0175
150 | F505N | 0.0264
151 | R2T | 0.0193
152 | T204G | -0.452
153 | T204F | -0.0751
154 | P267F | -0.919
155 | A135H | -0.353
156 | R42Y | 0.0172
157 | R42S | 0.0235
158 | Q470V | -0.00474
159 | Q470M | -0.0791
160 | I359P | -1.08
161 | T436L | 0.548
162 | T436G | -0.0926
163 | L131H | -0.283
164 | G479L | 0.00935
165 | Y425I | 0.315
166 | Y425K | -0.0804
167 | V301C | -0.217
